For orientation: Km means the substrate concentration at which the rate is half of its maximum. By kcat is commonly meant the number of substrate molecules converted per active site and unit of time at saturation.

Substrate in this data set: Nc1ccn([C@@H]2O[C@H](COP(=O)(O)OP(=O)(O)OP(=O)(O)O)[C@@H](O)[C@H]2O)c(=O)n1
The data set is described as follows: purified protein. Format: biochemical, Bacteroides thetaiotaomicron. Conditions: 6 mM KDN, 10 mM MgCl2, Tris pH 7.5, 25 °C.

B1: BT1715 (Bacteroides thetaiotaomicron VPI-5482) (protein)
chain: MNYAFVVQARLGSTRLPGKILKPFYGNQSILDLMVHKLSAISNIPVIIATTNSVINEPIEKKALALGVKCFRGEENDVLKRFIDVAEYFDIQGIFRICSDNPFLDVHAARQLVEIAMKSCNDYISFDIDGTPSIKTHFGFWGEFVTLDALKRVIGFTDDLLYREHVTNYIYSHPELFNIQWISGSPVVSKHHNIRLTIDTLEDFSVAQRIYRDLQEKRVEISIEVIVDYVRRHAEYIQLMKQQIKKNSK
For B1, the Km worked out at 510 ± 30 µM and the turnover number (kcat) came out at 0.017 ± 0.0005 s⁻¹.

The record behind these values is article PMC4425688.
